From PMC8626509
Values joined by “and” are separate entries in the source; they are usually repeats but may differ in a detail not shown here. Equal values may be shown once.

Experiments:
His106 = His106 (UniProt position 107, GELAKHAVSEG); assay: NMR; conditions: 303 K; 200 mM (adjusted with NaCl); 20 mM acetate pH 4.4, 5.0; 20 mM MES pH 5.4, 5.8, 6.2; 20 mM phosphate pH 6.8, 7.1, 7.5; folded free H2A-H2B heterodimer (150 uM)
His79 = His79 (UniProt position 80, ASRLAHYNKRS); assay: NMR; conditions: 303 K; 200 mM (adjusted with NaCl); 20 mM acetate pH 4.4, 5.0; 20 mM MES pH 5.4, 5.8, 6.2; 20 mM phosphate pH 6.8, 7.1, 7.5; folded free H2A-H2B heterodimer (150 uM)
Glu91 = Glu91 (UniProt position 92, IRNDEELNKLL); assay: NMR; conditions: 303 K, 200 mM (adjusted with NaCl)
Asp89 = Asp89 (UniProt position 90, LAIRNDEELNK); assay: NMR; conditions: 303 K; 200 mM (adjusted with NaCl); 20 mM acetate pH 4.5, 5.1; 20 mM MES pH 5.6, 6.0, 6.5; 20 mM phosphate pH 6.8, 7.5, 7.9; 20 mM CHES pH 9.1; folded free H2A-H2B heterodimer (150 uM)
Glu55 = Glu55 (UniProt position 56, LAAVMEYLAAE); assay: NMR; conditions: 303 K, 200 mM (adjusted with NaCl)
Glu63 = Glu63 (UniProt position 64, AAEVLELAGNA); assay: NMR; conditions: 303 K; 200 mM (adjusted with NaCl); 20 mM sodium acetate (pH 4.4-5.1), 20 mM MES (pH 5.4-6.5), 20 mM sodium phosphate (pH 6.8-7.9), 20 mM CHES (pH 9.1); folded free H2A-H2B heterodimer
Glu90 = Glu90 (UniProt position 91, AIRNDEELNKL); assay: NMR; conditions: 303 K; 200 mM (adjusted with NaCl); 20 mM sodium acetate (pH 4.4-5.1), 20 mM MES (pH 5.4-6.5), 20 mM sodium phosphate (pH 6.8-7.9), 20 mM CHES (pH 9.1); folded free H2A-H2B heterodimer
Glu60 = Glu60 (UniProt position 61, EYLAAEVLELA); assay: NMR; conditions: 303 K; 200 mM (adjusted with NaCl); 20 mM sodium acetate (pH 4.4-5.1), 20 mM MES (pH 5.4-6.5), 20 mM sodium phosphate (pH 6.8-7.9), 20 mM CHES (pH 9.1); folded free H2A-H2B heterodimer
[1] = 20 mM sodium acetate (pH 4.4-5.1), 20 mM MES (pH 5.4-6.5), 20 mM sodium phosphate (pH 6.8-7.9), 20 mM CHES (pH 9.1), folded free H2A-H2B heterodimer

Substance | pKa (His106) | pKa (His79) | pKa (His46) | pKa (Glu91; 20 mM acetate pH 4.4, 5.0, 20 mM MES pH 5.4, 5.8, 6.2, 20 mM phosphate pH 6.8, 7.1, 7.5, folded free H2A-H2B heterodimer (150 uM)) | pKa (Glu91; [1]) | pKa (Asp89) | pKa (Glu55; 20 mM acetate pH 4.5, 5.1, 20 mM MES pH 5.6, 6.0, 6.5, 20 mM phosphate pH 6.8, 7.5, 7.9, 20 mM CHES pH 9.1, folded free H2A-H2B heterodimer (150 uM)) | pKa (Glu55; [1]) | pKa (Glu63) | pKa (Glu90) | pKa (Glu60)
Histone H2B (in the free H2A-H2B heterodimer) (Drosophila melanogaster) | 6.52 ± 0.05 [6.23–6.93] | 6.7 | 5.86 ± 0.03 [5.66–6.06] and 5.64 ± 0.02 [5.54–5.74] and 5.75 ± 0.03 [5.52–5.92] |  |  |  |  |  |  |  | 
Histone H2A (in the free H2A-H2B heterodimer) (Drosophila melanogaster) |  |  |  | 4.36 ± 0.06 [3.89–4.79] | < 5 | 5.51 ± 0.11 [4.37–6.07] and 5.02 ± 0.28 [4.61–5.61] and 5.3 | 4.32 ± 0.08 [4.08–4.78] | < 5 | < 5 | < 5 | < 5
